Publication PMC9174199, “Structural basis for MTA1c-mediated DNA N6-adenine methylation” (Nature Communications, 2022)

T1: GST-MTA1 (residues 171-372)
T1 chain: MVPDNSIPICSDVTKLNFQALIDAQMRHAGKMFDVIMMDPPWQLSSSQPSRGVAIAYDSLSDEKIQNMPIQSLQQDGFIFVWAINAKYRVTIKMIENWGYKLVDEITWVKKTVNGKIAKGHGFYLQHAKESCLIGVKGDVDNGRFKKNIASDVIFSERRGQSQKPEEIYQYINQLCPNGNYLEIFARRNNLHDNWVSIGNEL

T2: Tetrahymena thermophila MTA1 (TthMTA1), untagged
T2 chain: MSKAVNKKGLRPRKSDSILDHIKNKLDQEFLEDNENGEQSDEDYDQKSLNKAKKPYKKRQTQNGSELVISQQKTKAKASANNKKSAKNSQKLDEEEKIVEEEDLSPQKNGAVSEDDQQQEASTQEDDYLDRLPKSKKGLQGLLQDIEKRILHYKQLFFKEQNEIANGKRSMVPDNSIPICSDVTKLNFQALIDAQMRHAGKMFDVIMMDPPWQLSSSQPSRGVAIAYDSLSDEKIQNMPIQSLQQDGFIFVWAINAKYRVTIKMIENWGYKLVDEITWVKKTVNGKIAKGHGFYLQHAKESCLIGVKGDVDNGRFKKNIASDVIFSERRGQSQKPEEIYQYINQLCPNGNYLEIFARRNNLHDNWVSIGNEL

B1: Paramecium tetraurelia MTA9 (PteMTA9), untagged V219A (protein)
chain: MGKNQRESLRMRLRYNEPGSENKRINYFKLNQGYDITEDDSEYMDEQDSYKAFKKIRKYKTKSKEDKVTCDNLEVLLQWKGSINCQSYETDQKKIVVLKKILGTDLSQYAKGVQGIFIDNLFKKDLKNLDISKKLISNGILFIWSDKSLINEILETMENKGFTYIENLVVVQLSLEQALEELNKHMKIEQTEDAVLDNLDFLQQKVQVKDLILHRPSKALNQSKQVLIMFRKFDEQKSQLELRHQRTPDVLFDIVNNGKSCLKTKEYIYQTIETLLPKSQLMEIFAQKDQPRKGWISVCENK
B2: Paramecium tetraurelia MTA9 (PteMTA9), untagged L220A (protein)
chain: MGKNQRESLRMRLRYNEPGSENKRINYFKLNQGYDITEDDSEYMDEQDSYKAFKKIRKYKTKSKEDKVTCDNLEVLLQWKGSINCQSYETDQKKIVVLKKILGTDLSQYAKGVQGIFIDNLFKKDLKNLDISKKLISNGILFIWSDKSLINEILETMENKGFTYIENLVVVQLSLEQALEELNKHMKIEQTEDAVLDNLDFLQQKVQVKDLILHRPSKVANQSKQVLIMFRKFDEQKSQLELRHQRTPDVLFDIVNNGKSCLKTKEYIYQTIETLLPKSQLMEIFAQKDQPRKGWISVCENK
B3: Paramecium tetraurelia MTA9 (PteMTA9), untagged Y164A (protein)
chain: MGKNQRESLRMRLRYNEPGSENKRINYFKLNQGYDITEDDSEYMDEQDSYKAFKKIRKYKTKSKEDKVTCDNLEVLLQWKGSINCQSYETDQKKIVVLKKILGTDLSQYAKGVQGIFIDNLFKKDLKNLDISKKLISNGILFIWSDKSLINEILETMENKGFTAIENLVVVQLSLEQALEELNKHMKIEQTEDAVLDNLDFLQQKVQVKDLILHRPSKVLNQSKQVLIMFRKFDEQKSQLELRHQRTPDVLFDIVNNGKSCLKTKEYIYQTIETLLPKSQLMEIFAQKDQPRKGWISVCENK
B4: His6GST-Tthp1 L173A (protein)
chain: MSLKKGKFQHNQSKSLWNYTLSPGWREEEVKILKSALQLFGIGKWKKIMESGCLPGKSIGQIYMQTQRLLGQQSLGDFMGLQIDLEAVFNQNMKKQDVLRKNNCIINTGDNPTKEERKRRIEQNRKIYGLSAKQIAEIKLPKVKKHAPQYMTLEDIENEKFTNLEILTHLYNAKAEIVRRLAEQGETIAQPSIIKSLNNLNHNLEQNQNSNSSTETKVTLEQSGKKKYKVLAIEETELQNGPIATNSQKKSINGKRKNNRKINSDSEGNEEDISLEDIDSQESEINSEEIVEDDEEDEQIEEPSKIKKRKKNPEQESEEDDIEEDQEEDELVVNEEEIFEDDDDDEDNQDSSEDDDDDED
B5: His6GST-Tthp1 L167A; L170A (protein)
chain: MSLKKGKFQHNQSKSLWNYTLSPGWREEEVKILKSALQLFGIGKWKKIMESGCLPGKSIGQIYMQTQRLLGQQSLGDFMGLQIDLEAVFNQNMKKQDVLRKNNCIINTGDNPTKEERKRRIEQNRKIYGLSAKQIAEIKLPKVKKHAPQYMTLEDIENEKFTNLEIATHAYNLKAEIVRRLAEQGETIAQPSIIKSLNNLNHNLEQNQNSNSSTETKVTLEQSGKKKYKVLAIEETELQNGPIATNSQKKSINGKRKNNRKINSDSEGNEEDISLEDIDSQESEINSEEIVEDDEEDEQIEEPSKIKKRKKNPEQESEEDDIEEDQEEDELVVNEEEIFEDDDDDEDNQDSSEDDDDDED
B6: His6GST-Tthp1 L167A; L170A; L173A; I177A (protein)
chain: MSLKKGKFQHNQSKSLWNYTLSPGWREEEVKILKSALQLFGIGKWKKIMESGCLPGKSIGQIYMQTQRLLGQQSLGDFMGLQIDLEAVFNQNMKKQDVLRKNNCIINTGDNPTKEERKRRIEQNRKIYGLSAKQIAEIKLPKVKKHAPQYMTLEDIENEKFTNLEIATHAYNAKAEAVRRLAEQGETIAQPSIIKSLNNLNHNLEQNQNSNSSTETKVTLEQSGKKKYKVLAIEETELQNGPIATNSQKKSINGKRKNNRKINSDSEGNEEDISLEDIDSQESEINSEEIVEDDEEDEQIEEPSKIKKRKKNPEQESEEDDIEEDQEEDELVVNEEEIFEDDDDDEDNQDSSEDDDDDED
B7: His6GST-Tthp1 L170A (protein)
chain: MSLKKGKFQHNQSKSLWNYTLSPGWREEEVKILKSALQLFGIGKWKKIMESGCLPGKSIGQIYMQTQRLLGQQSLGDFMGLQIDLEAVFNQNMKKQDVLRKNNCIINTGDNPTKEERKRRIEQNRKIYGLSAKQIAEIKLPKVKKHAPQYMTLEDIENEKFTNLEILTHAYNLKAEIVRRLAEQGETIAQPSIIKSLNNLNHNLEQNQNSNSSTETKVTLEQSGKKKYKVLAIEETELQNGPIATNSQKKSINGKRKNNRKINSDSEGNEEDISLEDIDSQESEINSEEIVEDDEEDEQIEEPSKIKKRKKNPEQESEEDDIEEDQEEDELVVNEEEIFEDDDDDEDNQDSSEDDDDDED
B8: His6GST-Tthp1 L167A; L170A; L173A (protein)
chain: MSLKKGKFQHNQSKSLWNYTLSPGWREEEVKILKSALQLFGIGKWKKIMESGCLPGKSIGQIYMQTQRLLGQQSLGDFMGLQIDLEAVFNQNMKKQDVLRKNNCIINTGDNPTKEERKRRIEQNRKIYGLSAKQIAEIKLPKVKKHAPQYMTLEDIENEKFTNLEIATHAYNAKAEIVRRLAEQGETIAQPSIIKSLNNLNHNLEQNQNSNSSTETKVTLEQSGKKKYKVLAIEETELQNGPIATNSQKKSINGKRKNNRKINSDSEGNEEDISLEDIDSQESEINSEEIVEDDEEDEQIEEPSKIKKRKKNPEQESEEDDIEEDQEEDELVVNEEEIFEDDDDDEDNQDSSEDDDDDED
B9: His6GST-Tthp1 L167A (protein)
chain: MSLKKGKFQHNQSKSLWNYTLSPGWREEEVKILKSALQLFGIGKWKKIMESGCLPGKSIGQIYMQTQRLLGQQSLGDFMGLQIDLEAVFNQNMKKQDVLRKNNCIINTGDNPTKEERKRRIEQNRKIYGLSAKQIAEIKLPKVKKHAPQYMTLEDIENEKFTNLEIATHLYNLKAEIVRRLAEQGETIAQPSIIKSLNNLNHNLEQNQNSNSSTETKVTLEQSGKKKYKVLAIEETELQNGPIATNSQKKSINGKRKNNRKINSDSEGNEEDISLEDIDSQESEINSEEIVEDDEEDEQIEEPSKIKKRKKNPEQESEEDDIEEDQEEDELVVNEEEIFEDDDDDEDNQDSSEDDDDDED
B10: His6GST-Tthp1 I177A (protein)
chain: MSLKKGKFQHNQSKSLWNYTLSPGWREEEVKILKSALQLFGIGKWKKIMESGCLPGKSIGQIYMQTQRLLGQQSLGDFMGLQIDLEAVFNQNMKKQDVLRKNNCIINTGDNPTKEERKRRIEQNRKIYGLSAKQIAEIKLPKVKKHAPQYMTLEDIENEKFTNLEILTHLYNLKAEAVRRLAEQGETIAQPSIIKSLNNLNHNLEQNQNSNSSTETKVTLEQSGKKKYKVLAIEETELQNGPIATNSQKKSINGKRKNNRKINSDSEGNEEDISLEDIDSQESEINSEEIVEDDEEDEQIEEPSKIKKRKKNPEQESEEDDIEEDQEEDELVVNEEEIFEDDDDDEDNQDSSEDDDDDED
B11: His6GST-Tthp2 H39A (protein)
chain: MKKNGKSQNQPLDFTQYAKNMRKDLSNQDICLEDGALNASYFLTKKGQYWTPLNQKALQRGIELFGVGNWKEINYDEFSGKANIVELELRTCMILGINDITEYYGKKISEEEQEEIKKSNIAKGKKENKLKDNIYQKLQQMQ
B12: His6GST-Tthp2 Y17A (protein)
chain: MKKNGKSQNQPLDFTQAAKNMRKDLSNQDICLEDGALNHSYFLTKKGQYWTPLNQKALQRGIELFGVGNWKEINYDEFSGKANIVELELRTCMILGINDITEYYGKKISEEEQEEIKKSNIAKGKKENKLKDNIYQKLQQMQ
B13: His6GST-Tthp2 S26A (protein)
chain: MKKNGKSQNQPLDFTQYAKNMRKDLANQDICLEDGALNHSYFLTKKGQYWTPLNQKALQRGIELFGVGNWKEINYDEFSGKANIVELELRTCMILGINDITEYYGKKISEEEQEEIKKSNIAKGKKENKLKDNIYQKLQQMQ
B14: His6GST-Tthp2 D24A (protein)
chain: MKKNGKSQNQPLDFTQYAKNMRKALSNQDICLEDGALNHSYFLTKKGQYWTPLNQKALQRGIELFGVGNWKEINYDEFSGKANIVELELRTCMILGINDITEYYGKKISEEEQEEIKKSNIAKGKKENKLKDNIYQKLQQMQ
B15: His6GST-Tthp2 R22A (protein)
chain: MKKNGKSQNQPLDFTQYAKNMAKDLSNQDICLEDGALNHSYFLTKKGQYWTPLNQKALQRGIELFGVGNWKEINYDEFSGKANIVELELRTCMILGINDITEYYGKKISEEEQEEIKKSNIAKGKKENKLKDNIYQKLQQMQ
B16: His6GST-Tthp2 Y41A (protein)
chain: MKKNGKSQNQPLDFTQYAKNMRKDLSNQDICLEDGALNHSAFLTKKGQYWTPLNQKALQRGIELFGVGNWKEINYDEFSGKANIVELELRTCMILGINDITEYYGKKISEEEQEEIKKSNIAKGKKENKLKDNIYQKLQQMQ

These molecules were tested against Paramecium tetraurelia MTA9 (PteMTA9), untagged (assay: GST pull-down). Conditions: parent: 100.

Going from GST-MTA1 (residues 171-372) L295A to GST-MTA1 (residues 171-372) Q296A, the percent of parent rises from 7% to 95%.

Going from GST-MTA1 (residues 171-372) Y294A to GST-MTA1 (residues 171-372) H297A, the percent of parent rises from 12% to 97%.

Molecular target: T1, GST-MTA1 (residues 171-372)
Experiment: GST pull-down
Conditions: chain shown with the change;; parent: 100

Going from B1 to B2, the percent of parent rises from 45% to 73%.

B3 showed a percent of parent of 0%.

Molecular target: T2, Tetrahymena thermophila MTA1 (TthMTA1), …
Experiment: GST pull-down
Conditions: chain shown with the change;; parent: 100

First: B4
Second: B5
The percent of parent of the first is higher: 78% for the first, 0% for the second.

First: B6
Second: B7
The percent of parent of the first is lower: 0% for the first, 47% for the second.

Going from B8 to B9, the percent of parent rises from 0% to 48%.

Molecule B10 has a percent of parent of 78%.

Molecular target: T2, Tetrahymena thermophila MTA1 (TthMTA1), …
Experiment: GST pull-down, gray scanning of bound MTA1 band
Conditions: chain shown with the change;; parent: 100

B11 and B12 are the same in percent of parent: 0% for the first, 0% for the second.

Compared with B13, B14 is higher in percent of parent: 50% for the first, 77% for the second.

B15 and B16 are the same in percent of parent: 0% for the first, 0% for the second.
